# Where no end group is shown, it is not given here.
# Experiments:
# [1] = target: T1, sPLA2-IIA catalytic activity (Homo sapiens, UniProt P14555); details: clinical trials; cited from earlier work
# T1 sequence (P14555 21-144): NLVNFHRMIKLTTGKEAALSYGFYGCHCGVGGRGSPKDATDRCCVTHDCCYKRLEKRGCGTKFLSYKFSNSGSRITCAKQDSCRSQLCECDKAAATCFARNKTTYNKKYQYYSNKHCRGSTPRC
# FKN-CD = target: T2, FKN-CD (Homo sapiens, UniProt P78423); details: cited from earlier work
# T2 sequence (P78423 25-100 limits assumed): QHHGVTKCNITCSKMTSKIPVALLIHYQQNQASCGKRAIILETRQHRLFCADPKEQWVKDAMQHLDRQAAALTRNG
# [2] = tested on: integrin activation by FKN-CD; details: cited from earlier work
# sPLA2-IIA = target: T3, sPLA2-IIA (Homo sapiens, UniProt P14555); assay: ELISA-type binding of S2 peptides to immobilized sPLA2-IIA; details: GST-tagged peptides; sPLA2-IIA 20 μg/ml coating
# T3 construct: made in house
# T3 sequence (P14555 21-144): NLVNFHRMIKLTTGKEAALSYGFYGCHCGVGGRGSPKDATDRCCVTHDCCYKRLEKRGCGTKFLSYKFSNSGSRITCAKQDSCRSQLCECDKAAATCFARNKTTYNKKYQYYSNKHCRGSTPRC
# Method: ELISA-type binding assays were performed as described previously (18). Briefly, wells of 96-well Immulon 2 microtiter plates (Dynatech Laboratories, Chantilly, Va.) were coated with 100 μl 0.1 M NaHCO3 containing sPLA2-IIA, γC399tr, FN-H120 for 2 h at 37° C. Remaining protein binding sites were blocked by incubating with PBS/0.1% BSA for 30 min at room temperature. After washing with PBS, S2 peptides were added to the wells and incubated in PBS for 2 h at room temperature. After unbound S2 peptides were removed by rinsing the wells with PBS, bound S2 peptides (GST-tagged) were measured using HRP-conjugated anti-GST antibody and peroxidase substrates.
# U937 cells = assay: sPLA2-IIA-induced chemotaxis in modified Boyden chambers; format: cell-based, human; details: 1 μg/ml sPLA2-IIA, 20 μg/ml peptide, 5 h
# Method: FIG. 11. S2-β1 peptide suppresses sPLA2-IIA-induced chemotaxis. Chemotaxis was measured in modified Boyden chambers. 1 μg/ml sPLA2-IIA and 20 μg/ml S2-β1 peptide or control peptides in 600 μl RPMI 1640 medium were placed in lower chamber, and U937 cells (2×10^5 cells in 100 μl RPMI 1640 medium) were placed in the upper chamber. After 5 hours of incubation at 37° C., cells in the lower chamber was counted.
# Chemotaxis was measured in modified Boyden Chambers (Transwell). One μg/ml sPLA2-IIA and 20 μg/ml S2-β1 peptide or control peptides in 600 μl RPMI 1640 medium were placed in the lower chamber, and U937 cells (2×10^5 cells in 100 μl RPMI1640 medium) were placed in the upper chamber. After 5 h incubation at 37° C., cells in the lower chamber were counted.
# [3] = tested on: other ligands (e.g., SDF-1, IGF-1); assay: Additional testing: binding of linear and cyclic site 2 peptides to other ligands
# Source text: Data are shown in FIG. 12 comparing cyclic site 2 peptides (β1 and β3) binding to sPLA2-IIA or FKN.
# [4] = tested on: integrin αvβ3 on U937, αvβ3-K562 and β3-CHO cells; assay: Flow cytometry: binding of FITC-labeled γC399tr to αvβ3 on the cell surface; format: cell-based, human
# Method: (§1) The cells were cultured to nearly confluent in RPMI 1640/10% FCS (K562 and U937) or DMEM/10% FCS (CHO cells). The cells were resuspended with RPMI 1640/0.02% BSA or DMEM/0.02% BSA and incubated for 30 min at room temperature to block remaining protein binding sites. The cells were then incubated with WT sPLA2-IIA or mutants for 5 min at room temperature and then incubated with FITC-labeled integrin ligands (γC399tr, FN-H120, FN8-11, and ADAM15) for 15 min at room temperature. For blocking experiments, sPLA-IIA was preincubated with S2-β1 peptide for 30 min at room temperature. The cells were washed with PBS/0.02% BSA and analyzed by FACSCalibur (Becton Dickinson, Mountain View, Calif.). For inhibition studies using Cmpd21, sPLA2-IIA was preincubated with Cmpd21 for 30 minutes at room temperature.
# [5] = tested on: integrin α4β1 on U937, α4-K562 and α4-CHO cells; assay: Flow cytometry: binding of FITC-labeled fibronectin H120 fragment to α4β1 on the cell surface; format: cell-based, human; details: for binding of H120 to α4β1 (α4β1 activation): U937, α4-K562, α4-CHO cells, sPLA2-IIA WT or mutants
# Method: as §1
# [6] = tested on: integrin α5β1 on U937, K562 and CHO cells; assay: Flow cytometry: binding of FITC-labeled FN8-11 to α5β1 on the cell surface; format: cell-based, human, Chinese hamster; details: sPLA2-IIA WT or mutants
# Method: as §1
# [7] = target: T4, integrin αvβ3 on U937, αvβ3-K562 and β3-CHO cells (Homo sapiens, UniProt P05106+P06756); assay: Flow cytometry: binding of FITC-labeled ADAM15 disintegrin domain to αvβ3; format: cell-based; details: sPLA2-IIA 20 μg/ml
# T4 construct: expressed in transfected cells; host or cells: U937 (endogenous αvβ3); αvβ3-K562 (transfected human αvβ3); β3-CHO (human β3 with hamster αv)
# Method: as §1
# [8] = tested on: integrins αvβ3, α4β1, α5β1; assay: sPLA2-IIA-induced integrin activation (present study overall)
# Method: ELISA-type binding assays were performed as described previously (18). Briefly, wells of 96-well Immulon 2 microtiter plates (Dynatech Laboratories, Chantilly, Va.) were coated with 100 μl 0.1 M NaHCO3 containing γC399tr or ADAM15 for 2 h at 37° C. Remaining protein binding sites were blocked by incubating with PBS/0.1% BSA for 30 min at room temperature. After washing with PBS, soluble recombinant αvβ3 (5 μg/ml) in the presence or absence of sPLA2-IIA (WT or mutants) was added to the wells and incubated in HEPES-Tyrodes buffer (10 mM HEPES, 150 mM NaCl, 12 mM NaHCO3, 0.4 mM NaH2PO4, 2.5 mM KCl, 0.1% glucose, 0.1% BSA) with 1 mM CaCl2 for 2 h at room temperature. After unbound αvβ3 was removed by rinsing the wells with binding buffer, bound αvβ3 was measured using anti-integrin β3 mAb (AV-10) followed by HRP-conjugated goat anti-mouse IgG and peroxidase substrates.
# The cells were cultured to nearly confluent in RPMI 1640/10% FCS (K562 and U937) or DMEM/10% FCS (CHO cells). The cells were resuspended with RPMI 1640/0.02% BSA or DMEM/0.02% BSA and incubated for 30 min at room temperature to block remaining protein binding sites. […] The cells were washed with PBS/0.02% BSA and analyzed by FACSCalibur (Becton Dickinson, Mountain View, Calif.). […]
# [9] = tested on: integrin ligands used in this study; assay: ELISA: binding of sPLA2-IIA to the integrin ligands used; details: ligands coated at 2 μM
# Method: FIG. 10. Lack of binding of sPLA2-IIA to integrin ligands used in the present study. Wells of 96-well microtiter plates were coated with ligands (2 μM coating concentration) and the remaining protein-binding sites were blocked with BSA. The wells were then incubated with sPLA2-IIA ([…] in PBS) for 2 hours at room temperature, and bound sPLA2-IIA was determined using HRP-conjugated anti-6His antibody. sPLA2-IIA (20 ng/ml coating concentration, 1% of input sPLA2-IIA) was used as a positive control. Data are shown as means+/−SEM of triplicate experiments.
# [10] = target: T5, β1 integrins on U937, K562 and α4-K562 cells (Homo sapiens, UniProt P05556); assay: Reactivity of β1 integrins to activation-dependent antibodies HUTS4 and HUTS21; format: cell-based; details: U937, K562, α4-K562 cells in RPMI1640; preliminary experiments
# T5 construct: endogenous in cells; host or cells: U937, K562, α4-K562
# Source text: It is unclear whether sPLA2-IIA-induced integrin activation requires global conformational changes in integrins. In current models of integrin activation, activation of β1 integrins induces a swing-out movement of the hybrid domain and exposes epitopes recognized by activation-dependent antibodies (anti-human β1 HUTS4 and HUTS21)(45). The HUTS4 and HUTS21 epitopes are located in the hybrid domain of […] (46,47). […] It is possible that the binding of sPLA2-IIA to site 2 induces only local conformational changes within the headpiece of integrins. […] It was shown that sPLA2-IIA (the current study) FKN-CD (19) actually bind to site 2 and the binding of sPLA2-IIA and FKN to site 2 is required for integrin activation using the peptides from site 2. It is likely that integrins that are activated by sPLA2-IIA and FKN-CD through site 2 have conformations similar to the open-headpiece αvβ3 that has no global conformational changes compared to the closed-headpiece form. The open- and closed-headpiece conformations of αvβ3 may really reflect the fact that integrins can be activated without global conformational changes through allosteric mechanism.
# Listera = details: cited from earlier work
# T5 sequence (P05556 21-798): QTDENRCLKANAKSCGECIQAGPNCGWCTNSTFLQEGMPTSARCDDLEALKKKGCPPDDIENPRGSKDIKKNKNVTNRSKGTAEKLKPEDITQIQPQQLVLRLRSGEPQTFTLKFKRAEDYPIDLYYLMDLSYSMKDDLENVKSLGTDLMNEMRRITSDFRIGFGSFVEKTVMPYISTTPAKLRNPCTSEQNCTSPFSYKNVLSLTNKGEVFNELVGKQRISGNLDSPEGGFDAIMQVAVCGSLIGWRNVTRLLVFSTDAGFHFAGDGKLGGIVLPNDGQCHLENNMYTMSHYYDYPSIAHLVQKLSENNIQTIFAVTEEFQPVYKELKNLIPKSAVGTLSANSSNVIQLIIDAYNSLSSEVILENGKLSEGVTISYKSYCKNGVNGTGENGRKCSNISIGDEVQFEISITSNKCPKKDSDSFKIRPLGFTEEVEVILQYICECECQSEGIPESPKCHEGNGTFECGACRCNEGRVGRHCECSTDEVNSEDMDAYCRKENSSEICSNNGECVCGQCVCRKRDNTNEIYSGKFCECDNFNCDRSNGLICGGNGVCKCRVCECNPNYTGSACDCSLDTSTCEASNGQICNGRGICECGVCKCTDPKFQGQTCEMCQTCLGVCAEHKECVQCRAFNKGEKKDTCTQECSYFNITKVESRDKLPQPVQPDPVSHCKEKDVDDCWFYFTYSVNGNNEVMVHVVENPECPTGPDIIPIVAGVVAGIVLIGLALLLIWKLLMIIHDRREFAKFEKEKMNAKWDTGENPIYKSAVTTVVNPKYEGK
# T5 sequence (P08648 42-894 partner limits assumed): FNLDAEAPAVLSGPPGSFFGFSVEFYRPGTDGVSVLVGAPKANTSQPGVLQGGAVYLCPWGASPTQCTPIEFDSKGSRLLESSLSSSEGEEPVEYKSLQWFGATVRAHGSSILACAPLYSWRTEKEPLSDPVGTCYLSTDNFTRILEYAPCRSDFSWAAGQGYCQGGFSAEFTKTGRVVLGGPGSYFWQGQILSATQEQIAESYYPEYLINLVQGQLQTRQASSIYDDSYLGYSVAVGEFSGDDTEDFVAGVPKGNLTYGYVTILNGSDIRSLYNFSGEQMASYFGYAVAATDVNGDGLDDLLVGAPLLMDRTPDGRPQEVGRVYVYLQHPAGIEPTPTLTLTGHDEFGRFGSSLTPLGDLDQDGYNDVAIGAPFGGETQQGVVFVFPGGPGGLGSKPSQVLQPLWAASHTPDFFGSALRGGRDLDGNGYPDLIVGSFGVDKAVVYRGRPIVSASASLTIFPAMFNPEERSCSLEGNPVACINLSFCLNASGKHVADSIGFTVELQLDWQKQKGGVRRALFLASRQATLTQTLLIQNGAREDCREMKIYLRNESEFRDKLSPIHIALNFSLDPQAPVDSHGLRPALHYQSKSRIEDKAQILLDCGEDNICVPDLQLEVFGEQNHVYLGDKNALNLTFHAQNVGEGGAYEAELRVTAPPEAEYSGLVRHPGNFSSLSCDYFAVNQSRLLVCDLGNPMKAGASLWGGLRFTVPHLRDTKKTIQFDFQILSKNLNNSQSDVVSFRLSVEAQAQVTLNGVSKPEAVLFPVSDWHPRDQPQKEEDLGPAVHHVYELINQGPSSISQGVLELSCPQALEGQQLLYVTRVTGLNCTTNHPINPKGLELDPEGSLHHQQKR
# T5 sequence (P08648 895-1049 partner limits assumed): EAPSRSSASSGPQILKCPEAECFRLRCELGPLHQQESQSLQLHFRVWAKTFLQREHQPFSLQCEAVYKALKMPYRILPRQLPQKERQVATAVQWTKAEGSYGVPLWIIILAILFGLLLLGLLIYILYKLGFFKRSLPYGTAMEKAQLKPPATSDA
molecule,measurement,setting,value
CCc1c(C(=O)C(N)=O)c2c(OCC(=O)OC)cccc2n1Cc1ccccc1 [S-3013/LY333013],therapeutic effect in rheumatoid arthritis and asthma,[1],failed to demonstrate a significant therapeutic effect
CCc1c(C(=O)C(N)=O)c2c(OCC(=O)[O-])cccc2n1Cc1ccccc1.[Na+] [S-5920/LY315920Na],therapeutic effect in rheumatoid arthritis and asthma,[1],failed to demonstrate a significant therapeutic effect
"QPNDGQSHVGSDNHYSASTTM [S2-β3 peptide, site 2 peptide, residues 267-287 of β3, C273 changed to S, GST fusion protein]",binding to FKN-CD,FKN-CD,directly binds to FKN-CD
same,FKN-CD-induced integrin activation,[2],suppresses FKN-CD-induced integrin activation
"S2-β1 peptide: site 2 peptide from integrin β1 (β1 275-294, SEQ ID NO:1), made as GST fusion protein (LPNDGQCHLENNMYTMSHYY; also: made as GST fusion protein)",binding of site 2 peptide to immobilized sPLA2-IIA,sPLA2-IIA,bound better to sPLA2-IIA in a concentration-dependent manner than S2-β3 peptide
same,chemotaxis induced by sPLA2-IIA,U937 cells,suppressed chemotaxis induced by sPLA2-IIA
"VHDSHYSGQGAMSDNTNSPQT [Compound S2-β3scr, scrambled site 2 peptide, GST fusion protein, control, reference compound]",binding of site 2 peptide to immobilized sPLA2-IIA,sPLA2-IIA,did not bind to sPLA2-IIA
same,FKN-CD-induced integrin activation,[2],does not
"linear β1 peptide: linear peptide comprising SEQ ID NO:1, GST fusion (LPNDGQCHLENNMYTMSHYY; also: GST fusion)","binding to other ligands (e.g., SDF-1, IGF-1)",[3],did not bind to other ligands
"WT sPLA2-IIA: recombinant human secreted phospholipase A2 type IIA, wild type (protein) NLVNFHRMIKLTTGKEAALSYGFYGCHCGVGGRGSPKDATDRCCVTHDCCYKRLEKRGCGTKFLSYKFSNSGSRITCAKQDSCRSQLCECDKAAATCFARNKTTYNKKYQYYSNKHCRGSTPRC",activation of αvβ3 on the cell surface (FITC-γC399tr binding),[4],activated αvβ3
same,binding of H120 to α4β1 (α4β1 activation),[5],markedly increased the binding of H120 to α4β1
same,sPLA2-IIA concentration of maximum H120 binding,"[5]; α4-CHO cells, sPLA2-IIA up to 500 μg/ml, binding reduced at higher concentrations",20 µg/mL
same,binding of FITC-labeled FN8-11 to α5β1 (α5β1 activation),[6],markedly increased the binding of FITC-labeled FN8-11
same,binding of FITC-labeled ADAM15 disintegrin domain to αvβ3,[7],markedly enhanced
same,sPLA2-IIA concentration required to detect integrin activation,[8],> 5 µg/mL
same,direct interaction of sPLA2-IIA with integrin ligands,[9],does not directly interact with the integrin ligands used in this study
same,reactivity of β1 integrins to HUTS4 and HUTS21,[10],did not change reactivity of β1 integrins to HUTS4 and HUTS21
same,concentration that kills Listera,Listera,< 0.1 nM
"G29S/D48K: M-type receptor-binding defective mutant of sPLA2-IIA (protein, left off: small tags and cut ends) NLVNFHRMIKLTTGKEAALSYGFYGCHCSVGGRGSPKDATDRCCVTHKCCYKRLEKRGCGTKFLSYKFSNSGSRITCAKQDSCRSQLCECDKAAATCFARNKTTYNKKYQYYSNKHCRGSTPRC",binding of H120 to α4β1 (α4β1 activation),[5],induced α4β1 activation
same,binding of FITC-labeled FN8-11 to α5β1 (α5β1 activation),[6],induced α5β1 activation
"R74E/R100E: integrin-binding defective mutant of sPLA2-IIA (protein, left off: small tags and cut ends) NLVNFHRMIKLTTGKEAALSYGFYGCHCGVGGRGSPKDATDRCCVTHDCCYKRLEKRGCGTKFLSYKFSNSGSEITCAKQDSCRSQLCECDKAAATCFAENKTTYNKKYQYYSNKHCRGSTPRC",binding of FITC-labeled FN8-11 to α5β1 (α5β1 activation),[6],did not

# Source: US10591471B2, “Suppression of SPLA2-integrin binding for treating an inflammatory condition or suppressing cell proliferation” (THE REGENTS OF THE UNIVERSITY OF CALIFORNIA, priority 2015, dated 2020)
